The record followed here is US20220025003A1 (University of Washington, published 2022).

Residue numbers refer to the chain shown, from its start. In names and notes the source's numbering stands. Like-named read-outs stand apart in the source and are kept apart here. Bounds are passed on as bounds.

The target in assay [1] is T1, NS3a/grazoprevir complex (biotinylated NS3a_3 with grazoprevir) (hepatitis C virus genotype 1a).
T1 construct: See note of m30; also called grazoprevir/NS3a complex
In words: yeast surface display, flow cytometry.

The target of assay [2] is T2, NS3a/asunaprevir complex (biotinylated NS3a_3 with asunaprevir) (hepatitis C virus genotype 1a).
T2 construct: See note of m30
Nature of the assay: yeast surface display titration, apparent KD; NS3a_3, 10 drug:1 NS3a.

For assay [3], the target named is T3, NS3a/danoprevir complex (biotinylated NS3a_3 with danoprevir) (hepatitis C virus genotype 1a).
T3 construct: See note of m30; also called danoprevir/NS3a complex
Described as above.

Assay [4] concerns the target T1, NS3a/grazoprevir complex (biotinylated …). The assay is described as above.
In assay [5] the target is T3, NS3a/danoprevir complex (biotinylated …). In words: yeast surface display.
Assay [6] concerns the target T2, NS3a/asunaprevir complex (biotinylated …). In words: ratio of apparent KD against the danoprevir/NS3a complex of the same clone.
Assay [7] deals with T1, NS3a/grazoprevir complex (biotinylated …). The description is as above.
Assay [8] addresses T3, NS3a/danoprevir complex (biotinylated …).
The target in assay [9] is T2, NS3a/asunaprevir complex (biotinylated …). In words: yeast surface display; against the NS3a/danoprevir complex.
Assay [10] addresses T1, NS3a/grazoprevir complex (biotinylated …). The description is as above.
Assay [11] addresses T2, NS3a/asunaprevir complex (biotinylated …). Nature of the assay: yeast surface display; relative binding, too weak for a full titration curve.
Assay [12] has as its target T3, NS3a/danoprevir complex (biotinylated …). The description is as above.
Assay [13] concerns the target T1, NS3a/grazoprevir complex (biotinylated …). The assay is described as above.
In assay [14] the target is T4, NS3aH1-mCherry, no drug (DMSO) (hepatitis C virus).
T4 construct: also called NS3a-mCherry
In words: colocalization, confocal microscopy, NIH3T3 cells, no drug.

Assay [15] addresses T3, NS3a/danoprevir complex (biotinylated …). Nature of the assay: yeast surface display, flow cytometry.
In assay [16] the target is T1, NS3a/grazoprevir complex (biotinylated …). In words: yeast surface display.

B1: G3 M112E, yeast surface display (designed binder)
chain: DIEKLCKKAEEEAKEAQEKADELRQRHPDSQAAEDAEDLANEAEAAVLAACSLAQEHPNADIAKLCIKAASEAAEAASKAAELAQRHPDSQAARDAIKLASQAARAVILAIELAAENPNADIAKLCIKAASEAAEAASKAAELAQRHPDSQAARDAIKLASQAAEAVERAIWLAAENPNADIAKKCIKAASEAAEEASKAAEEAQRHPDSQKARDEIKEASQKAEEVKERCKS
notes: also called G3 interface point mutant M112E
Consider B1, for which the binding result in [1] is reported as “no binding”.

B2: G3 A175Q, yeast surface display (designed binder)
chain: B1 chain with E112M, A175Q
notes: See note of m25; also called G3 interface point mutant A175Q
Take B2: the binding result in assay [1] is “no binding”.

B3: DNCR1, yeast surface display (C-terminal fusion to Aga2) (designed binder)
chain: KDNSSTIEGRYPYDVPDYALQASGGGGSGGGGSGGGGSASHMSSDEEEARELIERAKEAAERAQEAAERTGDPRVRELARELKRLAQEAAEEVKRDPSSSDVNEALKLIVEAIEAAVDALEAAERTGDPEVRELARELVRLAVEAAEEVQRNPSSSDVNEALLSIVIAIEAAVHALEAAERTGDPEVRELARELVRLAVEAAEEVQRNPSSREVEHALMKIVLAIYEAEESLREAEESGDPEKREKARERVREAVERAEEVQRDPSGWLNHLEGGGSEQKLISEEDL
In the case of B3, the Kd was 6300 nM in [2], 190 nM in [3], 2900 nM in assay [4] and under 200 nM in assay [5]. Also, the figures for the Fold drug specificity in assay [6] and in assay [7] were 33 fold and 15 fold, respectively.

B4: DNCR2, yeast surface display (C-terminal fusion to Aga2) (designed binder)
chain: B3 chain with L163H, I167Y, V173I, H174F, E213N, K220R, E227L, S231N
With B4, the Kd in [2] turned out to be 770 nM; in assay [4], 2000 nM; in assay [8] it was 0.036 nM. For the same molecule, the fold specificity in assay [9] and in [10] was over 20000 fold each time. Also, the Fold drug specificity in assay [6] was 21000 fold; in [7] it was 56000 fold.

B5: D5, yeast surface display (C-terminal fusion to Aga2) (designed binder)
chain: B3 chain with S164T, H174N, E215N, H216I, M219W, Y226Q, E229V
Turning to B5, the binding result in assay [11], in assay [12] and in [13] was “binds” each time.

B6: Tom20-BFP-ANR-ANR (other)
chain: MVGRNSAIAAGVCGALFIGYCIYFDRKRRSDPNFMSELIKENMHMKLYMEGTVDNHHFKCTSEGEGKPYEGTQTMRIKVVEGGPLPFAFDILATSFLYGSKTFINHTQGIPDFFKQSFPEGFTWERVTTYEDGGVLTATQDTSLQDGCLIYNVKIRGVNFTSNGPVMQKKTLGWEAFTETLYPADGGLEGRNDMALKLVGGSHLIANIKTTYRSKKPAKNLKMPGVYYVDYRLERIKEANNETYVEQHEVAVARYCDLPSKLGHKLNSGSGEQKLISEEDLGSGTGSGTGSGTGTTSGTGTGGSTGGELDELVYLLDGPGYDPIHSDGSGTGSGTGSGTGTTSGTGTGGSTGGELDELVYLLDGPGYDPIHSDGSGATNFSLLKQAGDVEENPG
In the case of B6, in [14], the binding result was “binds”.

B7: D5 W177D, yeast surface display (designed binder)
chain: SSDEEEARELIERAKEAAERAQEAAERTGDPRVRELARELKRLAQEAAEEVKRDPSSSDVNEALKLIVEAIEAAVDALEAAERTGDPEVRELARELVRLAVEAAEEVQRNPSSSDVNEALLTIVIAIEAAVNALEAAERTGDPEVRELARELVRLAVEAAEEVQRNPSSREVNIALDKIVLAIQEAVESLREAEESGDPEKREKARERVREAVERAEEVQRDPSGWLNH
notes: also called point mutant of the D5 interface, W177D
B7: the binding result in assay [15] is recorded as “no binding (tested: 1 µM NS3a with avidity, 10 µM danoprevir)”.

B8: GNCR1, yeast surface display (C-terminal fusion to Aga2) (designed binder)
chain: KDNSSTIEGRYPYDVPDYALQASGGGGSGGGGSGGGGSASHMDIEKLCKKAEEEAKEAQEKADELRQRHPDSQAAEDAEDLANLAVAAVLTACLLAQEHPNADIAKLCIKAASEAAEAASKAAELAQRHPDSQAARDAIKLASQAARAVILAIMLAAENPNADIAKLCIKAASEAAEAASKAAELAQRHPDSQAARDAIKLASQAAEAVERAIWLAAENPNADIAKKCIKAASEAAEEASKAAEEAQRHPDSQKARDEIKEASQKAEEVKERCKSLEGGGSEQKLISEEDL
With B8, the Kd in [4] was 140 nM; in assay [16], under 200 nM.

B9: ANR-ANR-BFP-CAAX (other)
chain: MGELDELVYLLDGPGYDPIHSDGSGTGSGTGSGTGTTSGTGTGGSTGGELDELVYLLDGPGYDPIHSDGSGTGSGTGSGTGTTSGTGTGGSTGEQKLISEEDLGSGSSELIKENMHMKLYMEGTVDNHHFKCTSEGEGKPYEGTQTMRIKVVEGGPLPFAFDILATSFLYGSKTFINHTQGIPDFFKQSFPEGFTWERVTTYEDGGVLTATQDTSLQDGCLIYNVKIRGVNFTSNGPVMQKKTLGWEAFTETLYPADGGLEGRNDMALKLVGGSHLIANIKTTYRSKKPAKNLKMPGVYYVDYRLERIKEANNETYVEQHEVAVARYCDLPSKLGHKLNRKHKEKMSKDGKKKKKKSKTKCVIM
Take B9: in [14], the binding result is listed as “binds”.
